The nature of the data set: yeast display, Sf9 membrane polyspecificity reagent, FACS + sequencing; frameworks hold sequencing errors. An outline of the steps: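 After 36–48 hours of galactose induction, yeast (Saccharomyces cerevisiae BJ5465) displaying a synthetic nanobody library were stained at 4 °C for 1 hour with 10% biotinylated, detergent-solubilized Sf9 membrane reagent. Streptavidin microbeads enriched the stained cells before FACS sorting into low and high (top ~1%) gates on anti-HA and streptavidin fluorescence. Each clone's polyreactivity label reflects its gate of origin.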
As for “QVQLVESGGGLVQAGGSLRLSCAASGIIFHYYAMGWYRQAPGKERELVAAISGSGGSTYYADSVKGRFTISRDNAKNTVYLQMNSLKPEDTAVYYCAAKLWGGGGYWGQGTQVTVSS”, the “polyreactivity (PSR sort gate)” value was “high polyreactivity”. On to “QVHLVESRGGLIQAGGSLRLSCAASGSLYVYNALGWYRQAPGKERELVAGITFIGGSTYYADSVKGRFTISRDNAKNTVYLQMNSLKPEDTAVCYSNADVAPGIFYGYDSWGQGTQVTVSS”, for which the “polyreactivity (PSR sort gate)” value is recorded as “low polyreactivity”. With “QDQLVESGGGLVQEGGSLRLSCAASVRIFGPYAMGWYRQAPGKERELLAAITRGGSTSYADSVKGRFTISRDNAKNTVYLQMNSLKPEDTAVYYCAADTLRWWDGFDYWGQGTQVTVST”, the “polyreactivity (PSR sort gate)” value is reported as “low polyreactivity”.

“QVQLVESGGGLVQAGGSLRLSCAASGSTFWVYAMGWYRPAPGKERELVAAIDYSGGSTYYADSVKGRFTISRDNAKNTVYLQMNSLKPEDTAVYYGAAGEGQYWLWDGEGEYDYWGQGTQVTVSS”: the “polyreactivity (PSR sort gate)” value was “low polyreactivity”. Turning to “QVQLVESGGGLVQAGGSLRLSCADSGSILIHYTMGWYRQEPGKERELVAAISSTGGSTYYADSVKGRFTISRDNAKNTVYLQMNSLKPEDTAVYYCATGPHQPPYSYLDYDYWGQGTQVTVSS”, the “polyreactivity (PSR sort gate)” value is recorded as “low polyreactivity”. Take “QVQLVESGGGLVQAGGSLRLSCAASGSTSLGYAMGWYRQAPGKERELVASISWTGGGTYYADSVKGRFTLSRDNAKNTVYLQMNSLKPDDTAVYYCAADLTGYHPYIYGYWGQGTQVTVSS”: the “polyreactivity (PSR sort gate)” value is “low polyreactivity”.

“QVQLVESGGGLVQAGGSLRLSCAASGFTFNAYAMGWYRQAPGKERELVAAINVSGGITYYADSVKGRFTISRDIAKNTVYLQMNSLKPEDTAVYYCAADVEWTSRGSYYRYYYWGQGTQVTVSS”: the “polyreactivity (PSR sort gate)” value is “low polyreactivity”.

Take “QVQLVESGGGLVQAGGSLRLSCAASGSIFRQYAMGLSRQAPGKERELVAAITYSGGNTYYADSVKGRFTISRDNAKNPVYLQLNSLKPEDTAVYYCAADYGSRSWEYTYWGQGTQVTVSS”: the “polyreactivity (PSR sort gate)” value is on record as “low polyreactivity”. To “QVQLVESGGGLVQAGGSLRLSCAASGSTFLSYVMGWYRQAPGKERELVAAINRDGGRTYYADSVKGRFTISRDNAKNTVYLQMNSLKPEDTAVYYCATTSQATSGPRRKLYYYWGQGTQVTVSS” belongs “high polyreactivity”; to “QVQLVESGGGLVQAGGSLRLSCAASGSIFGGYTMGWYRQAPGKERELVAAISRRGGNTYYADSVKGRFTISRDNAKNTVYLQMKSLKPEDTAVYYCAVRWPSARIPVKLDYWGQGTQVTVSS”, “high polyreactivity”. On to “QVQLVESGGGLVQAGGSLRISCAASGSTFDRNAMGWYRQPPGKERELVAAISSSGGRTYYADSVKGRFTISRDNAKNTVYLQMNSLKPEDTPVYYCAAAFSLGMYWGKGTQVTVSS”, for which the “polyreactivity (PSR sort gate)” value was “high polyreactivity”. To “QVQLVESGGGLVQAGGTLRLSCAASGIIFLVNAMGWYRQAPGKERELVATITSGGSTYADSVKGRFTISRDNAKNTVYLQMNSLKPEDTAVYYCAAVRRRRNSYGYWGQGTQVTVSS” belongs “high polyreactivity”; to “QVQLVESGGGLVQAGGSLRLSCAASGSIFYWNAMGWYRQAPGKEREFVADISQSGDSTYYADSVKGRFTISRDNAKNTVYLQMNSLKPEDTAVYYCAAQFLSYAWDYDYWGQGTQVTVSS”, “low polyreactivity”; to “QVQLVESGGGLVQAGGSLRLSCAASGSIFRVYAMGWYRQAPGKEREFVAAITRRGTRTYYADSVKGRFTISRDNAKNTVYLQMNSLKPEDTAVYYCAAYFTEGLYEYWGQGTQVTLSS”, “low polyreactivity”. As to “QVQLVESGGGLVQAGGSLRLSCAASASTFVYYAMGWYRQAPGKERELVAAISRSGTSTYYADSVKGRFTISRDNAKNTVYLQMNSLKPEDTAVFYCNARKKQGFDYWGQGTQVTVSS”, the “polyreactivity (PSR sort gate)” value is “high polyreactivity”.

Take “QVQLVESGGGLVQAGGSLRLSCAASGRIFYPNAMGWYRQAPGKERELVAAITWRGGRTYYADSVKGRFTISRDNAKNTVYLQMNSLKPEDTAVYYCNAVAPGKYNHWGQGTQVTVSS”: the “polyreactivity (PSR sort gate)” value is on record as “high polyreactivity”. To “QVQLVESGGGLDQAGGSLRLSCAASGFTFYSYVMGWYRQAPGKERELVAAITRGGSTYYADSVKGRFTISRDNAKNTVYLQMNSMKPDDTAVYYCAKRPSYGFNYWGQGTQVTVSS” belongs “low polyreactivity”; to “QVQLVESGGGLVQAGGSLRLSCAASGLTFRSYSMGWYRQAPGKEREFVAAITGSGDTTYYADSVKGRFTISRDNAKNTVYLQMNSLKPEDTAVYYCNADRDYLWITLYEYWGQGTQVTVSS”, “high polyreactivity”; to “QVQLVESGGGLVQAGGSLRLSCAASGSIFGYYAMGWYRQAPGKERELVAAIDSGGVSTYYADSVKGRFTISRDIAKNTVYLQMNSLKAEDTAVYYCAKRGPVRKTAYDYWGQGTQVTVSS”, “low polyreactivity”. Turning to “QVQLVESGGGLVQAGGSLRLSCAASGSIFTPYAMGWYRQAPGKERELVAGIRSSGGRTYYADSVKGRFTISRDNAKNTVYLQMNSLKPEDTAVYYCAARVGGIYRNDYWGQGTQVTVSS”, the “polyreactivity (PSR sort gate)” value was “low polyreactivity”. As for “QVQLLESGGGLVQAGGTLRLSCAASGRTFYVNAMGWYRQAPGKERELVAAIRRGGSPNYADSVKGRFTISRDNEQNTVYLQMNSLKPEDTAVFYCNASPCGRKQYISPYDYRGQGTQVTVSS”, the “polyreactivity (PSR sort gate)” value is given as “low polyreactivity”. “QVQLVESGGGLVQAGGSLRLSCAASGSTFVGYAMGWYRPAPGKERELVAAITIRGGSTYYADSVKGRFTISRDNAKNNVYLQMNSLKPEDTAVYYCAADYWYGGFEYWGQGTQVTVSS”: the “polyreactivity (PSR sort gate)” value is “low polyreactivity”.

For the sequence “QFQLVESGGGLVQAGGSLRLSCAASGFIFGYNAMGWYRQAPGKERELVAPITYNGASTNYADSVKGRFTISRDNAKNTVYLQMNSLKPEDTAVYYCAADYGPYDPEDDWGQGTQVTVSS”, the “polyreactivity (PSR sort gate)” value is listed as “low polyreactivity”. As to “QVQLVESGGGLVQEGGSLRLSCAASGFTFRYYTMGWYRQATGKERELVATITWSGGGTYYADSVKGRFTISRDNAKNTVYLQRISLKPVDSAVYYCTAGLFYKAQYGYWGKGTQVTVSS”, the “polyreactivity (PSR sort gate)” value was “high polyreactivity”.

In the case of “QVQLVESAGGLVQAGGSLRLSCAASGRIFARYAMGWYRQAPGKVRELVAAISASGGSTYYADSVKGRFTISRDNAKYTVYLQMNSLKPEDTAVYYCAARFSYPYRIAFNYWGQGTQVTVSS”, the “polyreactivity (PSR sort gate)” value is recorded as “low polyreactivity”. With “QVQLVESGGGLVQAGGSLRLSCAASGSTFSGYAMGWSRQAPGKERELVASITSSGGSTYYADSVKGRFTISRDNAKNTVYLQMNSLKPEDTAVYYCAAAKSAMWGQGTQVTVSS”, the “polyreactivity (PSR sort gate)” value is recorded as “low polyreactivity”.

With “QVQLVESGGGLVQAGGSLRLSCAASGGIFYPYAMGWYRQAPGKERELVASIDVSDGSTYYADSVKGRFTISRDNAKNSVYLQMNSLKPEDTAVYYCAADRYSKAIDFEGDYWGQGTQVTVSS”, the “polyreactivity (PSR sort gate)” value is “low polyreactivity”. “QVQLVESGGGLVQAGGSLRLSCAASGRTFKDYAMGWDIQEPGKERELVAAISWSGGDTYYADSVKGRFTISRDNAKNTVYLQMNSLKPEDTAVYYCNADPSGVFFYSLEFDYWGQGTQVTVSS”: the “polyreactivity (PSR sort gate)” value is on record as “low polyreactivity”. With “QVQLVESGGGLVQAGGSLRLSCAASGIIFVWYAMGWYRQAPGKERELVAAIRSGGITNYADSVKGRFTISRDNAKNTVYLQMNSLKPEDTAVYYCDAPYRTDTGDDYWGQGTQVTVSS”, the “polyreactivity (PSR sort gate)” value is reported as “low polyreactivity”. Consider “QVQLVESGGGLVQAGGSLRLSCAASGRTFYLNAMGWYRQAPGKERELVAAIRFSGGSTYYADSVKGRFTISRDNAKNTVLLQMNSLKPEDTAVYYCNAGPYHSLYPTVSEYGYWGQGTQVTVSS”, for which the “polyreactivity (PSR sort gate)” value is “low polyreactivity”. To “QVQLVESGGGLVQAGGSLRLSCAASGSIFTSNAMGWYRQAPGKERELVAVISRRGGSTYYADSVKGRFTISRDNAKNTVYLQMNSLKPEDTAVYYCARRPYSYTRYEYWGQGTQVTVSS” belongs “low polyreactivity”. Take “QVQLVESGGGLVQAGGSLRLSCAASGSIFFWYTMGWYRQAPGKERELVATISWSDGTTYYADSVKGRFTISRDKAKNTVYLQMNSLIPEDTAVYYCAAESYPSEVSSYVSEYDYWGQGTQVTVSS”: the “polyreactivity (PSR sort gate)” value is listed as “low polyreactivity”. Regarding “QVLLVESGGGLVQEGGSLRLSCAASGITFDTYAMGGYRQAPGKEREFVASIKWITGNTYYEDSVKGRFTISRDNAKNTVYLQMNSLKTEDTAVYYCAARTYYVRGLGGRPGMDYWGQGTQVTVSS”, the “polyreactivity (PSR sort gate)” value is on record as “low polyreactivity”.

For “QVQLVESGGGLVQAGGSLRLSCAASGSTILSNAMGWYRQAPGKERELVARITSGGSTHYADSVKGRFTISRDNAKNTVYLQMNSLKPEDTAVYYCNADYWFVEYDYWGQGTQVTVSS”, the “polyreactivity (PSR sort gate)” value is “low polyreactivity”. As for “QVQLEESGGGSVQAGGSLRISCAASGFTFFSYTMGWYRQAPGKERELVAAISKRGSRTYYADSVKGRFTISRDHAKNTVDLQMNSLKPEDTAVYYCAADAGPEVVHRREDYWGQVTQVTVSS”, the “polyreactivity (PSR sort gate)” value is reported as “high polyreactivity”. To “QVQLVESGGGLVQAGGSLRLSCAASGFNFYTNVMGWYRPAPGKERELVAAINSGGSTNYADSVKGRFTISRDNAKNTVYLQMNSLKPEDTAVYYCAARVARISVPYDYWGQGTQVTVSS” belongs “low polyreactivity”; to “QVQLVESGRGLVQAGGSLRLSCAASGRISVFNAMGWYRQAPGKERELVAAISWSGGSTYYADSVKGRFTISRDNAKNTVYLQMNSLKPEDTAVYYCAARGHYQYYWGQGTQVTVSS”, “low polyreactivity”. With “QVQLVESGGGLVQAGGSLRLSSAASGTFWWYAMGWYRQAPGQEMELVASINRGGSTYYADSVKGRFTISRDNAKNTVYLQMNSLKPEDTAVYYCAAQVDRKYRWFNSWGQGTQVTVSS”, the “polyreactivity (PSR sort gate)” value is reported as “high polyreactivity”. “QVQLVESGGCLVQAGGSLRLSCAASGRTSDGYAMGWYRQAPGKERELVAGITEGGGDTYYADSVKGRFTISRDNAKITDYLQMNSLKPEDTAVYYCNAGEGSRLPYDYWGQGTQVTVSS”: the “polyreactivity (PSR sort gate)” value is “low polyreactivity”. To “QVQLVESGGGLVQAGGSLRLSCAASGSIFYINAMGWYRQAPGKERELVAAIRSGGSTNYADSVKGRFTISRDNAKNTVYLQMNSLKPEDTAVYYCNARSRSYVPYYYWGQGTQVTVSS” belongs “high polyreactivity”; to “QVQLVESGGGLVQAGGSLRLSCAASGRTFRSYAMGWYRQAPGKERELVAAIRRGGSTNYADSVKGRFTISRDNAKNTVYLQMNSLKPEDTAVYYCNARQTVRGPTDGRIAVWFDYWGQGTQVTVSS”, “high polyreactivity”.

Values taken from the nanobody polyreactivity screen of Harvey et al. (2022).
